Paper PMC7884072, “Development of antibody-dependent cell cytotoxicity function in HIV-1 antibodies” (eLife, 2021)

Legend:
Settings in all cases: both partners purified
[1] = biological target: T1, gp41 ectodomain (HIV strain C.ZA.1197MB) (HIV-1 strain C.ZA.1197MB); experiment: BLI; Octet RED; mAb (8 µg/mL) captured on anti-human IgG Fc biosensors (ligand); monomeric gp41 ectodomain or gp120 as analyte in a series of up to six two-fold dilutions; 30°C; 1X PBS, 0.1% BSA, 0.005% Tween-20, 0.02% sodium azide; association 180 s, dissociation 180 s; double referencing; 1:1 model
T1 construct: gp41 ectodomain of HIV-1 Env, strain C.ZA.1197MB (clade C); Called monomeric in the legends; also called monomeric C.ZA.1197MB gp41 ectodomain; clade C gp41 ectodomain; source: bought: Immune Technology Corp
T1 chain: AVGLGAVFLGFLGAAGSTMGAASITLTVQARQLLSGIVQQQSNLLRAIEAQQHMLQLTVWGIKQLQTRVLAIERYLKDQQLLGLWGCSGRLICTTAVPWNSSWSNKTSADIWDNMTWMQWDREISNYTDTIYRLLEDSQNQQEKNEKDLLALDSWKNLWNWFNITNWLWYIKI

[2] = biological target: T2, gp120 (HIV strain BL035.W6M.C1) (HIV-1 strain BL035.W6M.C1); experiment: BLI; mAb lineage members captured on anti-human IgG Fc biosensors (ligand); monomeric gp41 ectodomain or BL035.W6M.C1 gp120 as analyte at 62.5 nM
T2 construct: gp120, the surface subunit cut from HIV-1 Env gp160, strain BL035.W6M.C1 (clade A); Called monomeric in the legends; also called monomeric BL035.W6M.C1 gp120; monomeric gp120; source: bought: Immune Technology Corp

[3] = biological target: T2, gp120 (HIV strain BL035.W6M.C1); experiment: BLI; 157-lineage naive antibodies as ligand; monomeric BL035 gp120 as analyte at 250 nM; without the double reference approach

B1: 072-0VH0VK (antibody, V domains shown)
VH: QVQLVQSGAEVKKPGSSVKVSCKASGGTFSSYAISWVRQAPGQGLEWMGGIIPILGIANYAQKFQGRVTITADESTSTAYMELSSLRSEDTAVYYCARHYDDSSGFFYGAFDIWGQGTTLTVSS
VL: DIQMTQSPSSLSASVGDRVTITCRASQGISNYLAWYQQKPGKVPKLLIYAASTLQSGVPSRFSGSGSGTDFTLTISSLQPEDVATYYCQKYNSAPWTFGQGTKVEIK
notes: 072-0VH, inferred naive heavy chain variable region (VH 1-69*11, DH 4-17*01, JH 3*02); 072-0VK, inferred naive kappa variable region (VK 1-27*01, JK 1*01); Whole human IgG1, kappa (Igγ1 vector Addgene 80795, Igκ vector Addgene 80796); also called 072 lineage inferred naive mAb; inferred naive precursor of the 072 lineage; source: HEK 293F, co-transfected, purified (protein G)
[1]
  Kd: 34.4 nM

B2: 105-1VH1VK (antibody, V domains shown)
VH: EVQLVESGGGLVKPGGSLRLSCAASGFSFTNAYMSWVRQAPGKGLEWVGRIKSKADDGTTDYAAPVKGRFTISRDDSKNTLYLQMNSLKTEDTAVYYCTTGVMIANQDSYYYMDVWGKGTTVAVSS
VL: not shown
notes: Whole human IgG1, kappa; source: HEK 293F, co-transfected, purified (protein G)
[2]
  binding result: binds

B3: 157-0VHAVK (antibody, V domains shown)
VH: QVQLVQSGAEVKKPGSSVKVSCKASGGTFSSYAISWVRQAPGQGLEWMGGIIPILGIANYAQKFQGRVTITADESTSTAYMELSSLRSEDTAVYYCARGKVSSSDWFQPIYYYYMDVWGGGTTVTVSS
VL: EIVMTQSPATLSVSPGERATLSCRASQSISSYLAWYQQKPGQAPRLLIYDASNRATGIPARFSGSGSGTDFTLTISSLEPEDFAVYYCQQRSNSLPFGQGTRLEIK
notes: as for B2
[3]
  binding result: no binding (tested: 250 nM)
